Laboratory results from patent US20120028901A1.
Like-named read-outs stand apart in the source and are kept apart here. Blank lines part the entries; values can stand above or below the binder they belong to.

Legend:
Conditions in all cases: modification not given
[1] = molecular target: T1, TFPI (human TFPI-1α) as coated or added in the ELISA, microarray and enzymatic assays (human), P10646; assay: competition
[2] = molecular target: T1, TFPI (human TFPI-1α) as coated or added …
[3] = molecular target: T1, TFPI (human TFPI-1α) as coated or added …; remark: listed apart in the source
[4] = molecular target: T1, TFPI (human TFPI-1α) as coated or added …; remark: listed apart in the source

B2: JBT0573 (peptide)
chain: FQSKFNVFVFGYFERLRAKL
- IC50 [1]: 1370 nM

B3: JBT0594 (peptide)
chain: FQSKKNVFVFGDFERLRAKL
- IC50 [1]: > 5000 nM

B6: JBT0590 (peptide)
chain: FQSKKNDFVFGYFERLRAKL
- IC50 [1]: > 5000 nM

B8: JBT0591 (peptide)
chain: FQSKKNVDVFGYFERLRAKL
- IC50 [1]: > 5000 nM

B9: JBT0806 (peptide)
chain: FQSKGNVFVAGYFARLRAKL
- EC50 [2]: 2420 nM
- EC50 [3]: 130 nM

B15: JBT0586 (peptide)
chain: FDSKKNVFVFGYFERLRAKL
- IC50 [1]: > 1670 nM

B16: JBT0583 (peptide)
chain: FQSKKNVFVFGYFERLRAFL
- IC50 [1]: > 5000 nM

B18: JBT0516 (peptide)
chain: FESKGNVFVFGYFERLRAKL
- IC50 [1]: 1190 nM

B20: JBT0588 (peptide)
chain: FQSDKNVFVFGYFERLRAKL
- IC50 [1]: > 5000 nM

B21: JBT0487 (peptide)
chain: FQSKNNVFVHGYFERLRAKL
- IC50 [1]: 40 nM

Further lines, results first:

- IC50 [1]: > 5000 nM
B1: JBT0579 (peptide)
chain: FQSKKNVFVFGYFEFLRAKL

- IC50 [1]: > 5000 nM
B4: JBT0572 (peptide)
chain: FQSFKNVFVFGYFERLRAKL

- IC50 [1]: > 1670 nM
B5: JBT0576 (peptide)
chain: FQSKKNVFVFFYFERLRAKL

- IC50 [1]: > 5000 nM
B7: JBT0577 (peptide)
chain: FQSKKNVFVFGFFERLRAKL

- IC50 [1]: > 5000 nM
B10: JBT0570 (peptide)
chain: FFSKKNVFVFGYFERLRAKL

- IC50 [1]: > 5000 nM
B11: JBT0574 (peptide)
chain: FQSKKFVFVFGYFERLRAKL

- IC50 [1]: > 5000 nM
B12: JBT0592 (peptide)
chain: FQSKKNVFDFGYFERLRAKL

- IC50 [1]: 100 nM
B13: JBT0497 (peptide)
chain: AQSKGNVFVFGYFERLRAKL

- IC50 [1]: > 5000 nM
B14: JBT0582 (peptide)
chain: FQSKKNVFVFGYFERLRFKL

- IC50 [1]: > 5000 nM
B17: JBT0581 (peptide)
chain: FQSKKNVFVFGYFERLFAKL

- IC50 [1]: > 5000 nM
B19: JBT0580 (peptide)
chain: FQSKKNVFVFGYFERFRAKL

- IC50 [1]: > 5000 nM
B22: JBT0571 (peptide)
chain: FQFKKNVFVFGYFERLRAKL

- EC50 [4]: 220 nM
B23: JBT0720 (peptide)
chain: FQSKGNVFVTGYFARLRAKL
